Target: T1, KDM5A1-797 (Homo sapiens, UniProt P29375)
T1 construct: KDM5A1-797 was cloned into a pFASTBAC HTA vector; His (N, cleaved yes); made in house; host or cells: Sf21 insect cells (baculovirus)
T1 sequence (P29375 1-797): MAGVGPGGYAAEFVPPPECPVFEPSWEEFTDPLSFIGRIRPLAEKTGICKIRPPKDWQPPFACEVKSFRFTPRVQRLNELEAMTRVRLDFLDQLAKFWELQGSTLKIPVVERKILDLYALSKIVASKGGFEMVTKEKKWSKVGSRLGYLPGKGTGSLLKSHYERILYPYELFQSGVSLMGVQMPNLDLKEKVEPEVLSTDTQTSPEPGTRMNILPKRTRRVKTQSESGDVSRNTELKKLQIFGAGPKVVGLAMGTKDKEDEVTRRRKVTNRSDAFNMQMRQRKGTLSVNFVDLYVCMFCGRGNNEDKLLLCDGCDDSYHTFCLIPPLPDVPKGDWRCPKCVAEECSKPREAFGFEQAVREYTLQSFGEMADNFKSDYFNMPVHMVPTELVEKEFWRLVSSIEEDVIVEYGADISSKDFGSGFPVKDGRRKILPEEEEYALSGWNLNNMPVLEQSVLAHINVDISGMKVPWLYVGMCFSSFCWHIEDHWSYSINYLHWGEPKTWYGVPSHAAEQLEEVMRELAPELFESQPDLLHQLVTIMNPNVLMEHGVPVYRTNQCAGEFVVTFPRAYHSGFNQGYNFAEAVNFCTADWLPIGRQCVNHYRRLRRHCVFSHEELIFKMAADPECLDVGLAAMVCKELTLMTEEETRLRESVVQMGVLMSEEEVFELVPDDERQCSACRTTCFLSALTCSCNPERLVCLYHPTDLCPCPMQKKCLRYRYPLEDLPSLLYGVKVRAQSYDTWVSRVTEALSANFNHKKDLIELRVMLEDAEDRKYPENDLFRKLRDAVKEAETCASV
Test: Lysine crosslinking MS
Conditions: H3 effector peptide 40 µM, BS^3-H12/D12, 1 h, 4 °C
Description: Hundred micrograms of KDM5A1-797 was crosslinked with 1 mM BS^3-H12 for 1 h at 4 °C. […] After quenching with 50 mM Tris-base, the light and heavy crosslinked reaction mixtures were combined and precipitated with ice cold acetone. Crosslinked proteins were pelleted by spinning at 21,000 × g, the supernatant was removed, and the pellet was washed once with cold acetone. The precipitate was brought up in 8 M Urea, 10 mM TCEP, heated at 56 °C for 20 min, and then alkylated with 15 mM iodoacetamide (45 min at room temperature). The sample was diluted to 2 M Urea and digested […] with 0.8 µg trypsin for 4 h at 37 °C. A second aliquot of trypsin was then added and digestion was allowed to proceed overnight. […]
LC-MS analysis was performed with a Q-Exactive Plus mass spectrometer (Thermo Scientific) coupled with a nanoelectrospray ion source (Easy-Spray, Thermo) and NanoAcquity UPLC system (Waters). […] Precursor MS scans were measured in the Orbitrap scanning from 350 to 1500 m/z (mass resolution: 70,000). The ten most intense triply charged or higher precursors were isolated in the quadrupole (isolation window: 4 m/z), dissociated by HCD (normalized collision energy: 23), and the product ion spectra were measured in the Orbitrap (mass resolution: 17,500). […]
For quantitative analysis, precursor ion filtering in Skyline 4.1 was used to extract light:heavy crosslinked precursor ion signals. […]

H3: unmodified N-terminal H3 tail 10mer peptide (H3 Ala1-Ser10), PHD1 effector ligand
changes in lysine crosslinks: minor changes in crosslink occupancy and distribution

Source: publication PMC6327041 (Nature Communications, 2019)
